Reference: paper PMC10978960, “Structure, function and substrate preferences of archaeal S-adenosyl-L-homocysteine hydrolases” (Communications Biology, 2024)

Target: the molecule itself
Assay: crystal structure; co-crystals of the purified enzyme with co-purified NAD+ and a nucleoside ligand (inosine, SIH or adenosine), sitting drop vapour diffusion at room temperature or 22 °C; tetramers built in the respective space groups and analysed with PDBePISA

Row | Protein | stoichiometry N
1 | S-adenosyl-L-homocysteine hydrolase from Pyrococcus furiosus (enzyme, S-adenosyl-L-homocysteine hydrolase (SAHH) of Pyrococcus furiosus; gene bought as a synthetic DNA string and cloned into pET28a(+); The tag counts as kept because protein concentration was determined with the molecular weight including the His6-tag and no cleavage step is described; One sample was heated at 95 °C for 15 min before crystallisation (8QNO); also called PfuSAHH; SAHH; source: E. coli …) MDCGKDYCVKDLSLAEEGWKKIDWVSRFMPVLQYIKREFEEKKPFKGVRIAATLHLEMKTAFLLLTLKAGGAEVSAAASNPLSTQDDVVAALAKAGVKVYAIRGESREQYYEFMHKALDIRPNIIIDDGADMISLVHKERQEMLDEIWGGSEETTTGVIRLRAMEKAGILKFPVIAVNDSYMKYLFDNRYGTGQSTWDGIMRATNLLIAGKNVVVVGYGWCGRGIAMRARGLGATVIVVEVDPIKALEARMDGFLVMDMKEAAKIGDIFVTATGNIKCIRREHFELMKDGAIMANAGHFDVEIWKPDLEKLAVEINNPRPNVTEYKLKDGRRLYLLADGRLVNLVAADGHPAEIMDMSFALQAKAAEYIKDNHERLEPKVYILPREIDEMVARIKLESMGIKIEELTEEQKKYLESWEHGT | 4
2 | S-adenosyl-L-homocysteine hydrolase from Methanococcus maripaludis (enzyme, S-adenosyl-L-homocysteine hydrolase (SAHH) of Methanococcus maripaludis; gene bought as a synthetic DNA string and cloned into pET28a(+); The tag counts as kept because protein concentration was determined with the molecular weight including the His6-tag and no cleavage step is described; also called MmaSAHH; SAHH; source: E. coli BL21-Gold(DE3), purified (nickel-NTA, PD-10 desalting)) MSNVKDMSLAPSGHLKMEWAKRHMPVLCRIAEEFKNDKPFEGLTIGMALHLEAKTAILAETLLEGGAKIVITGCNPLSTQDDVAAACVEKGMEVYAWRGETNEEYYENLNKVLDSNPDIIIDDGADLIFLIHTERTELIGKIMGGCEETTTGIIRLKSMAEEGALKFPVVNVNDAYTKHLFDNRYGTGQSAMDGIIRTTNLLIAGKNVVVGGYGWCGRGVASRAAGHGANVIITEVNPIRALEAKMDGFTVLKMEEAAKIGDIFVTTTGCKDILRMEHFLLMKDGAVLSNAGHFDNEINKNDLKELSKSVKEARFNIEEYDLGNKKIYLLGEGRLVNLACADGHPCEVMDMSFANQALSAKFIKENKGKLENEVYEIPYEQDFKIALLKLHSMGADIDELSPEQRKYLSDWKEGT | 4
3 | S-adenosyl-L-homocysteine hydrolase from Sulfolobus acidocaldarius (enzyme, S-adenosyl-L-homocysteine hydrolase (SAHH) of Sulfolobus acidocaldarius; gene bought as a synthetic DNA string and cloned into pET28a(+); The tag counts as kept because protein concentration was determined with the molecular weight including the His6-tag and no cleavage step is described; also called SacSAHH; SAHH; source: E. coli BL21-Gold(DE3), purified (nickel-NTA, PD-10 desalting)) MDYRVKDLSLAEQGRKQIEWAELHMPALMEIRKRFNAEKPLDGIRIGAVLHVTKETAVLVETLKAGGAEIALAGSNPLSTQDDVAAGLAKNGIHVYAWRGETEKDYYDNIREILKYEPHVIMDDGGDLHAYVHENNLTSKIVGGTEETTTGVIRLKAMEEEKVLKYPVIAVNNAFTKYLFDNRIGTGQSTIDGILRATNILIAGKVAVVIGYGWVGRGIASRFKGMGARVIVVESSPFRALEALMDGFDVMTMNRASEIGDIFVTATGNLNVVSRDHILRMKDGAVLANSGHFNVEIDVKGLKEISVETREVRQNLEEYKLRNGKRIYLLADGRLVNLVAAEGHPSEVMDLSFCNQALSVEHLIKNKGKLENKVYNVPIEIDEQVARLKLKALGIEIEELTIEQKEYIKQWKYGT | 4
4 | S-adenosyl-L-homocysteine hydrolase from Mus musculus (enzyme, S-adenosyl-L-homocysteine hydrolase (SAHH, adenosylhomocysteinase) of Mus musculus; gene bought as a synthetic DNA string and cloned into pET28a(+); The tag counts as kept because protein concentration was determined with the molecular weight including the His6-tag and no cleavage step is described; also called MmSAHH; SAHH; source: E. coli BL21-Gold(DE3), purified (nickel-NTA, PD-10 desalting)) MSDKLPYKVADIGLAAWGRKALDIAENEMPGLMRMREMYSASKPLKGARIAGCLHMTVETAVLIETLVALGAEVRWSSCNIFSTQDHAAAAIAKAGIPVFAWKGETDEEYLWCIEQTLHFKDGPLNMILDDGGDLTNLIHTKYPQLLSGIRGISEETTTGVHNLYKMMSNGILKVPAINVNDSVTKSKFDNLYGCRESLIDGIKRATDVMIAGKVAVVAGYGDVGKGCAQALRGFGARVIITEIDPINALQAAMEGYEVTTMDEACKEGNIFVTTTGCVDIILGRHFEQMKDDAIVCNIGHFDVEIDVKWLNENAVEKVNIKPQVDRYWLKNGRRIILLAEGRLVNLGCAMGHPSFVMSNSFTNQVMAQIELWTHPDKYPVGVHFLPKKLDEAVAEAHLGKLNVKLTKLTEKQAQYLGMPINGPFKPDHYRY | 4
